Source: patent US20250154517A1

Target: NpuDnaE(C)_Hyg^R (90-341) (Nostoc punctiforme; Escherichia coli)
Assay: cell-based or functional assay

rooting of co-transformed poplar shoots on root induction medium supplied with Hygromycin: 80%
Substance: Hyg^R(1-89)-NpuDnaE(N)
